{"source": "the DeepSol protein solubility set", "data": [{"assay": "soluble on expression in E. coli; label from the status in PepcDB or PDB records", "values": [{"sequence": "KRTWWLWRQTISSSRGNKVVFEVNADSVRYKSGKIDRSLAWSEIDQLEQTDLGFILHLGKQRQYISKSCLNEEVIAFMVEQHAGSKAS", "soluble on expression in E. coli": "not soluble"}, {"sequence": "MSSQSNTGNSIEAPQLPIPGQTNGSANVTVDGAGVNVGIQNGSQGQKTGMDLYFDQALNYMGEHPVITGFGAFLTLYFTAGAYKSISKGLNGGKSTTAFLKGGFDPKMNSKEALQILNLTENTLTKKKLKEVHRKIMLANHPDKGGSPFLATKINEAKDFLEKRGISK", "soluble on expression in E. coli": "soluble"}, {"sequence": "MSLGKATGFLEFGRELPKKIDPAERIKNNKEFVLNQEFGKKINQQASRCMDCGVPFCHNGCPIGNIIPEFNDAVYRDSWEEAWNILSSTNNFPEFTGRVCPAPCETACVLGINQDPITICNIEKTIVERAYQEGYAKPKTPRSRTGKTVAIIGSGPAGLAAAEQLNAAGHSVTVFERDEKVGGLLRFGIPDFKLGMDVIDRKINLMEQAGVKFVVNAHIGVDINAQQLRQEFDAVLLTGGSTVPRDLSIPGRDLKGVYFAMQFLAQNNRRANGMDLKGEEIHAKGKHVVVIGGGDTGSDCVGTSNRHGAASITQVEIMPIPPQKRPVNMPWPQYPMILRTSTSHEEGCERHWNILTKEFIGNEQGEVTGLRIADIVWKDAAPGERPSFDEVVGSERVIPCDMAFLAMGFLHPEPHGVLAQLGIKLDERGNVATQDFATNQKGVFAAGDMRTGQSLVVRCINEGRECARAVDTFLMGNTHLEAKADSLMLSAEGHHHHHH", "soluble on expression in E. coli": "soluble"}, {"sequence": "MGSDKIHHHHHHMKTKPIDLYILSGFLGSGKSTLLKRLIEQEQARGNKIGVLMNELGEVSVDSSIVPKDTPLKEMLNGCICCTIQGELSAQLQSFIEEYELDVIFIEATGAAHPLEVVEACTHPVFAGQVRVRGVLTVVNARQWIEGKMSIKIKKLMEAQVTFADLIVVNKVDQVTDAQVEQLTTSIKDLNPKAINIPTTFSNLEPVHSERLHHAAAPSSRGSESKAHVHEHLHLRTMAVPIQHPVDRMELLSFLKGIQGQIYRVKGFIHLKESPGLFLFNYAYGDPMFERHRTDQAYAPVLVFIGDDLDHQAIEEGLQQLQQ", "soluble on expression in E. coli": "not soluble"}, {"sequence": "SELRPSGDSGSSDVDAEISDGFSPLDTSHRDVADEGSLLRRAEMYQDYMKQVPIPTNRGSLIPFTSWVGLSISMKQLYGQPLHYLTNVLLQRWDQSRFGTDSEEQRLDSIIHPTKAEATIWLVEEIHRLTPSHLHMALLWRSDPMYHSFIDPIFPEK", "soluble on expression in E. coli": "soluble"}, {"sequence": "MGSDKIHHHHHHMGVKTAAIKPQINRFFERIINMIIDRERVKNTFAEYTSGYNATDPKIKLKIDHTYRVAELCELIARNLKLDEYETDVAWLTGMLHDVGRFEQIKCYNTFNDALSVDHANFGADLLFKEGLIDTYVDGFHDDKYGTIVENAIRNHSAFRIDERLDEYTVMFCNILRDADKVDIFRVNVDTPAEDIYNVTTEELKNSQVSPEVMAAFDERHAVLRSCKKTVVDHVAGHIALTFELVYPISLQIANERGYLDKMMAFESDNEVTGKQFEEIRAKLNEYVASVKPL", "soluble on expression in E. coli": "not soluble"}, {"sequence": "MSLEKAPHLTILVSIDGFRADYLDRGDTPVMKALAENGARAAMRPSFPSVTFPNHYTLITGKRPDRNGIVANTMVDPSVSAEKFTMRSLDPAWWSQAKPFWVSVEQQGKRAAAMFWPGSEVEIDGVRPSRWVKFDQTMPGDARVDQVLNWLDSADGPPIAFSTLYFDIVDTQGHHYGPESPEVRAAAASVDAALGRLVAGLKARGRFESTDIVIVADHGMAPLPAANRVVLDDLVDVSKIRLVTTGAVTAFSPMPGERKAVEAAFLSKPLPHMTCWKKNRIPARFHYGRNSRVPAIVCLSETGWYTTTEAAKQKPSEWDGKDGGAHGFDPYDPTMQAVFVAHGPSFKSGVALPAFDNVDVYALLAKVTGVRPEKTDGSLKVVREEGHHHHHH", "soluble on expression in E. coli": "not soluble"}, {"sequence": "MASYSDIVDSVRKCQFSPLYLLAGEEPFYIDELATLLETHVVPVDEWDFNRVILYGDKTSVADIANEARRFPMMGRRQLIVVREAQLVDNIDLLEAHYGTFPDTTILVIAYKKKPDKRKAFYTKAEKFGKVFVSETIPDYKMPDFILSAAAGKKLSVSPEVAYMLADYLGNDLEKLMNELDKLILITQDSRGVVTSEIVEQHIGVSKSFNNFELLRAIVNRETGKTFRIAHYFARNEKEHPIQATLPVLFNYFSNLMIVCYLPQKKPDAIMKALSIRNFQVRDYMTGLKMYSTRKVFDIIHEIRMTDARSKGVDTTGTFAGSGDLLRELLHFIFH", "soluble on expression in E. coli": "not soluble"}, {"sequence": "MEEINTKEVAQRITTELKRYSIPQAIFAQRVLCRSQGTLSDLLRNPKPWSKLKSGRETFRRMWKWLQEPEFQRMSALRLAACKRKEQEHGKDRGNTPKKPRLVFTDVQRRTLHAIFKENKRPSKELQITISQQLGLELSTVSNFFMNARRRSLDKWLEHHHHHH", "soluble on expression in E. coli": "soluble"}, {"sequence": "MMNLRSIAMNKPDLVIFFDGQCPLCCNEMRALKTADHQARILLVDVHDTDTMSCYPSIDKQRALSILHGIDQQGQLLYGLDVTVLAWRLVNRHRWLFITRMPILKGISDRMYLLFAKHRMRLSRWFGQTQCQEGVCQKKLEHHHHHH", "soluble on expression in E. coli": "soluble"}, {"sequence": "MHSMKLLVTGGMGFIGSNFIRYILEKHPDWEVINIDKLGYGSNPANLKDLEDDPRYTFVKGDVADYELVKELVRKVDGVVHLAAESHVDRSISSPEIFLHSNVIGTYTLLESIRRENPEVRFVHVSTDEVYGDILKGSFTENDRLMPSSPYSATKAASDMLVLGWTRTYNLNASITRCTNNYGPYQFPEKLIPKTIIRASLGLKIPIYGTGKNVRDWLYVEDHVRAIELVLLKGESREIYNISAGEEKTNLEVVKIILRLMGKGEELIELVEDRPGHDLRYSLDSWKITRDLKWRPKYTFDEGIKKTIDWYLKNEWWWKPLVDERILHPTPWKLKW", "soluble on expression in E. coli": "soluble"}, {"sequence": "MSLIVVKIGGRVVKNSLDKIILDILNINDKVILVHGGGDIVTDYTKRLGIEPVFVTSPEGIRSRYTTKEELEVYIMAMSLINKSITSKLCSLGKNAIGITGVDGGLLLAERKKRIVVIDERGKKRIIEGGYTGKVKEVRSEIINHLVKLFDIIVVSPIALDVEERTPLNIDGDQAAFAISKALRANVLILLSDVEGVLVEGKVINRLTPSEAKELSKKIGPGMNRKLLMAAESVENGVNKVIIGSGVKDRPIINALELNGTVIANGEGHHHHHH", "soluble on expression in E. coli": "soluble"}, {"sequence": "LLTLSDIGLSVHRYSNRLDVFTQALEGGKALGDVSVDVYDDNGKVVAQGKTDSDGHARLPLPAKAAVVLAHKDEQTSMLRLNSSALDLAEFDISGPQAHPLQFFIFGPRDLYRPGETVLLNGLLRDSDGKNVKPQPITVEVRRPDDQVSRKFVWEADSSGFYQYQLQLAEEAPTGRWQLVFDLGDGKPQLYEFKVEDFLPERLALELKGSDAPVAPADNPEFDITGRYLYGAPASGNTLTGQVYVRPLREAVAKLPGYQFGSITE", "soluble on expression in E. coli": "not soluble"}, {"sequence": "GLECDGKVNICCKKQFFVSFKDIGWNDWIIAPSGYHANYCEGECPSHIAGTSGSSLSFHSTVINHYRMRGHSPFANLKSCCVPTKLRPMSMLYYDDGQNIIKKDIQNMIVEECGCS", "soluble on expression in E. coli": "soluble"}, {"sequence": "SMTEEQPVASWALSFERLLQDPLGLAYFTEFLKKEFSAENVTFWKACERFQQIPASDTQQLAQEARNIYQEFLSSQALSPVNIDRQAWLGEEVLAEPRPDMFRAQQLQIFNLMKFDSYARFVKSPLYRECLLAEAEGRPLREPGSSRLGSPDAT", "soluble on expression in E. coli": "soluble"}, {"sequence": "MNTLMTQIHELQHVAHELLYLGADGSPIYTDSFRQLNTEVLQKSDALFALKGENPEEEARLCLALLMGYNATIYDYGDKESKKQVILDRSLLVLESLPSSLLKCQLLTYCYGEVFEEELAKEAHAIIDYWDNKTLSIDEQETVDMLKMIEENQYPNNYID", "soluble on expression in E. coli": "not soluble"}, {"sequence": "MYSDKVFDHFQNPRNVGKIEDADGVGTVGNPVCGDLMTIYIKVKDNRIEDIKFQTFGCAAAIATSSMATEMAKGKTIEEALKITRDAVAEALGGLPKQKMHCSNLAADALRRAIVDYFRKNGKIDKIKELGLEKELEKMEKGEMDDHGEYCEA", "soluble on expression in E. coli": "not soluble"}, {"sequence": "MGSDKIHHHHHHMLNQQWLTTFIKLVEVGHFTHTAEQLFMTQPGVSQHIKKLEQQVGVDLLIRIGKSFELTEAGIVLYQQALVWQQQQQQVLSQLAVDDEHVGDCRLACSGSMALLLYPHLIDYQLPYSQLQIYLEAAPNKRIIDSVMTNTIDVGIITQPINMDELVVTPLAAQSLCLVLPQSYLHQSVTFEQLMELGMVSHPDAMHYWSQIVGQYFTKKQALALQVPIRSYVNQLNQILVPVAKGLAFAVLPQFAVDHFGQQQHIRVASFTTEQANNVVVSEPLFIIYKKHRPLARRYGPIIDKIKQLVK", "soluble on expression in E. coli": "not soluble"}]}]}
